The record followed here is patent US20040171117A1 (GlaxoSmithKline, published 2004).

Assay [1] deals with T1, soluble human RANKL protein (shRANKL) (human, UniProt O14788 140-317, limits assumed, biotinylated at a 20:1 molar ratio of NHS-biotin to protein (competition ELISA only)).
T1 construct: also called sRANKL; soluble RANKL
T1 sequence (looked up): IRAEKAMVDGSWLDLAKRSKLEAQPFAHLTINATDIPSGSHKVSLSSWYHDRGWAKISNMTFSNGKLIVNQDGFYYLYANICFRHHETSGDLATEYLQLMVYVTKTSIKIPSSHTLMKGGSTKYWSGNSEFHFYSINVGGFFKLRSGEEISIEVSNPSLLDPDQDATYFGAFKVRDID
In words: not stated there (paragraph 33 defines high affinity as determined by optical biosensor analysis).

In assay [2] the target is T1, soluble human RANKL protein (shRANKL). Put plainly: cell-based or functional assay.
The target is the same in assay [3]. In words: competition ELISA: inhibition of biotinylated shRANKL binding to coated RANK-Fc. The source says:
(§1) A. A competition ELISA was established using a human RANK-Fc fusion protein coated on plastic and a biotinylated soluble human RANKL protein for detection in solution. The RANK-Fc and RANKL proteins were produced in CHO cells and Pichia pastoris, respectively, and purified to >90% homogeneity. The shRANKL (soluble, human RANKL) protein was biotinylated at a 20:1 molar ratio of NHS-biotin to protein (Pierce, Rockford, Ill.) according to th manufacturer's specifications. 96-well ELISA plates were coated overnight at 4° C. with 50 ng/well ([…]) RANK-Fc in pH 9.6 carbonate-bicarbonate buffer. Plates were washed in pH 7.4 Tris-Saline buffer containing 0.1% Tween 20 and blocked for 2 h at RT in 1% BSA/PBS. Competitor proteins (RANK-Fc; death receptor 5 (DR5)-Fc; OPG-Fc; RANKL MAb 19H22) were diluted in 0.01% Tween 20/PBS and added to wells prior to the addition of biotinylated shRANKL (0.43 nM) and the combined samples were incubated for 2 hrs at room temperature. The amount of biotinylated shRANKL bound to coated RANK-Fc (+/−competitor) was measured using alkaline phosphatase conjugated streptavidin. The substrate for signal detection was 105 PNPP (Pierce Inc., Rockford, Ill.) and absorbance measured at 405 nm using a Spectra Max 340 plate reader.
For orientation: An ELISA detects its analyte on a solid surface through an enzyme-linked reagent.

Assay [4] has the same target. In words: competition ELISA: soluble RANK-Fc inhibiting biotinylated shRANKL binding to coated RANK-Fc.
From the text: as §1

One may read the Kd as the constant that tells how readily two partners part at equilibrium. Usually IC50 stands for the midpoint of a concentration-inhibition curve.

B1: RANKL MAb 19H22 (mouse monoclonal antibody 19H22) (antibody, IgG2b, V domains shown)
VH: EIQLQQSGAELVNPGASVKLSCTASGFNIKGTYMHWVKQRPEQGLEWIGRIDPANGNTKYDPKFQGKATITTDTSPNTAYLQLSSLTSEDTAVYYCTTQFHYYGYGGVYWGQGTLVTVSA
VL: QIVLTQSPAIMSASPGEKVTMTCSASSSVSYMYWYQQKPGSSPRLLIYDTSNLASGVPVRFSGSGSGTSYSLTISRMEAEDAATYYCQQWSNFPLTFGAGTKLELKR
notes: also called 19H22 MAb; murine RANKL MAb 19H22
For B1, the equilibrium dissociation constant (Kd) in assay [1] was about 0.1 nM. In addition, in assay [2], the “IC50, human monocyte osteoclastogenesis (formation of multinuclear cells) with 50 ng/ml human soluble RANKL plus M-CSF” value was about 4 µg/mL. For the same molecule, in assay [3], the IC50 was about 2 nM.

B2: human RANK-Fc fusion protein (Fc fusion, UniProt Q9Y6Q6 30-212, looked up)
chain: IAPPCTSEKHYEHLGRCCNKCEPGKYMSSKCTTTSDSVCLPCGPDEYLDSWNEEDKCLLHKVCDTGKALVAVVAGNSTTPRRCACTAGYHWSQDCECCRRNTECAPGLGAQHPLQLNKDTVCKPCLAGYFSDAFSSTDKCRPWTNCTFLGKRVEHHGTEKSDAVCSSSLPARKPPNEPHVYLP
notes: Produced in CHO cells; not shown: Fc part
For B2, the IC50 in assay [4] is about 6 nM. Further, the “IC50, human monocyte osteoclastogenesis (formation of multinuclear cells) with 50 ng/ml human soluble RANKL plus M-CSF” value in assay [2] was about 0.5 µg/mL.

B3: OPG-Fc (Fc fusion, UniProt O00300 22-201, looked up)
chain: ETFPPKYLHYDEETSHQLLCDKCPPGTYLKQHCTAKWKTVCAPCPDHYYTDSWHTSDECLYCSPVCKELQYVKQECNRTHNRVCECKEGRYLEIEFCLKHRSCPPGFGVVQAGTPERNTVCKRCPDGFFSNETSSKAPCRKHTNCSVFGLLLTQKGNATHDNICSGNSESTQKCGIDVTL
notes: Construct not described; also called osteoprotegerin-Fc; not shown: Fc part; not described
As to B3, the IC50 in assay [3] was about 0.5 nM.
